Blank lines part the entries; values can stand above or below the binder they belong to.
Tests used:
[1] = target: T1, mPD-L1-Fc (mouse PD-L1 ectodomain fused to human IgG1 Fc, BioLegend) (mouse; human, UniProt Q9EP73 19-239); assay: competitive ELISA, mouse PD-1/PD-L1
T1 construct: extracellular domain; Bought from BioLegend; not shown: human IgG1 Fc domain
Protocol: (§1) The ability of nanobodies (Nbs) to inhibit the binding of PD-1 with PD-L1 was evaluated by competitive ELISA. For human molecules, plates were coated with 0.5 μg/mL hPD-1-Fc (R&D, Minneapolis, MN) in PBS o/n at 4° C. […] For mouse molecules, a similar protocol was followed. […] The signal of wells incubated without Nbs or antibodies were considered 100% of PD-1/PD-L1 binding.

[2] = target: T2, biotinylated hPD-L1 fused to human IgG Fc (BPS Bioscience) (human, UniProt Q9NZQ7 19-238, biotinylated (site not stated)); assay: competitive ELISA, human PD-1/PD-L1; the reference value of envafolimab (5.25 nM) is from the literature
T2 construct: extracellular domain; Bought from BPS Bioscience; also called human PD-L1

[3] = target: T2, biotinylated hPD-L1 fused to human IgG …; assay: competitive ELISA, human PD-1/PD-L1
Protocol: as §1

[4] = target: T3, biotinylated mPD-1-Fc (BPS Bioscience) (mouse; human, UniProt Q02242 25-169, biotinylated (site not stated)); assay: competitive ELISA, mouse PD-1/PD-L1
T3 construct: extracellular domain; Bought from BPS Bioscience; also called mouse PD-1
T3 sequence (looked up): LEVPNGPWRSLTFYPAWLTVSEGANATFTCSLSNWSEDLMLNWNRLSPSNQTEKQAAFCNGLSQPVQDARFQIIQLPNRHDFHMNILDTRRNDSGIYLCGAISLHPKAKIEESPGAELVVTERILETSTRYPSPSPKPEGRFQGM
Protocol: as §1

[5] = target: T4, hPD-1-Fc (human PD-1 ectodomain fused to human IgG1 Fc, R&D) (human, UniProt Q15116 25-170); assay: competitive ELISA, human PD-1/PD-L1
T4 construct: extracellular domain; Bought from R&D; not shown: human IgG1 Fc domain
Protocol: as §1

T4 sequence (Q15116 25-170): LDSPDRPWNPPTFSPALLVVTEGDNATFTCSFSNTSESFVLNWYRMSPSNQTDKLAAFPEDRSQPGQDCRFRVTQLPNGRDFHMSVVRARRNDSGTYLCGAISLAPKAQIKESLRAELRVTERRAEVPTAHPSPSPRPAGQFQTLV
T2 sequence (Q9NZQ7 19-238): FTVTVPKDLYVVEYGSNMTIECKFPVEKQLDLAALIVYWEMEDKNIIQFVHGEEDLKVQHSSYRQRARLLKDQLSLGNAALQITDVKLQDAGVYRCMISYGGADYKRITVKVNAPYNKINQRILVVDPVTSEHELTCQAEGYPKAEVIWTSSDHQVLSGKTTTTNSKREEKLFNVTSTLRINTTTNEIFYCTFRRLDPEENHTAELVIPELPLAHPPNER
T1 sequence (Q9EP73 19-239): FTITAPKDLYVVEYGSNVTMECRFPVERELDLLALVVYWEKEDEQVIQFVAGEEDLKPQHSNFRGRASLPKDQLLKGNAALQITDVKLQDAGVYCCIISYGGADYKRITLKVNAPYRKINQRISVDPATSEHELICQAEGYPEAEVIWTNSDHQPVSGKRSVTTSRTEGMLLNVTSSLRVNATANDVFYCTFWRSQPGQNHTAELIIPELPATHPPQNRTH

- fold IC50 reduction against monomeric Nb6p [1]: ~7 fold
- fold IC50 reduction of the Fc homodimer against monomeric Nb6p [1]: ~8 fold
- fold by which the literature IC50 of envafolimab is higher than that of Nb6p-Fc [2]: ~10 fold
- fold IC50 reduction against monomeric Nb6p [3]: ~7 fold
- fold IC50 reduction of the Fc homodimer against monomeric Nb6p [3]: ~8 fold
B1: Nb6p-Fc (Nb6p fused to mouse IgG2a Fc domain including hinge) (Fc fusion)
chain: AEVQLVESGGGLVQAGGSLRLSCAAAGRSFNSNAMGWVRQAPGKEREIVAVISATGSYTYYEDSVKGRFTISRDNSKNTVSLQMSSLSSEDTAVYYCAGSRTAALTTIMTLFNYWGQGTQVTVSSPGPRGPTIKPCPPCKCPAPNLLGGPSVFIFPPKIKDVLMISLSPIVTCVVVDVSEDDPDVQISWFVNNVEVHTAQTQTHREDYNSTLRVVSALPIQHQDWMSGKEFKCKVNNKDLPAPIERTISKPKGSVRAPQVYVLPPPEEEMTKKQVTLTCMVTDFMPEDIYVEWTNNGKTELNYKNTEPVLDSDGSYFMYSKLRVEKKNWVERNSYSCSVVHEGLHNHHTTKSFSRTPGK
notes: Fc homodimer, purified on protein A from supernatants of BHK-21 cells electroporated with SFV-Nb6p-Fc RNA; also called dimeric Nb6p

- fold IC50 reduction against clone RMPI-14 [4]: 700 fold
- fold IC50 reduction against monomeric Nb11 [4]: ~40 fold
- fold IC50 reduction against monomeric Nb11 [5]: ~40 fold
- fold IC50 reduction against nivolumab [5]: 10 fold
- fold lower IC50 than nivolumab [5]: 8.6 fold
B2: Nb11-Fc (Nb11 fused to mouse IgG1 Fc domain including hinge) (Fc fusion)
chain: AQVQLVQSGGGSVQAGDSLRLSCAVSGHPDSSYSMAWFRQAPGKERELVALISWSGAITHYSDSVKDRFTISRDNAKNEMYLQMDSLKPEDTAVYFCQADDPTSELNQYWGQGTQVTVSSGCKPCICTVPEVSSVFIFPPKPKDVLTITLTPKVTCVVVDISKDDPEVQFSWFVDDVEVHTAQTQPREEQFNSTFRSVSELPIMHQDWLNGKEFKCRVNSAAFPAPIEKTISKTKGRPKAPQVYTIPPPKEQMAKDKVSLTCMITDFFPEDITVEWQWNGQPAENYKNTQPIMDTDGSYFVYSKLNVQKSNWEAGNTFTCSVLHEGLHNHHTEKSLSHSPGK
notes: Fc homodimer, concentrated from supernatants of BHK-21 cells electroporated with SFV-Nb11-Fc RNA; also called dimeric Nb11
